# In patent publication US20130252887A1 (BETH ISRAEL DEACONESS MEDICAL CENTER, published 2013):
# T1: isolated recombinant domain V of β2GPI (residues 244-326) with N-terminal HA peptide tag (UniProt P02749 263-345)
# T1 construct: range 244-326; Expressed in E. coli from pET15b with a His tag that was removed with TEV protease; The HA-tagged form was used in the cardiolipin assays, where it was detected or dimerized with anti-HA antibody Abcam ab1265; also called β2GPI-DV; individual domain V of β2GPI
# T1 sequence: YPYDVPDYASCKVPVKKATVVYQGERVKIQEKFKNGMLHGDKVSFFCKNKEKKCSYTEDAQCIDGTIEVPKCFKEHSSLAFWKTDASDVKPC
# T2: Beta2-glycoprotein I (β2GPI), full-length, human (human, UniProt P02749 20-345)
# T2 construct: mature; Two preparations of the same native protein were used, serum and purified from plasma; the assay field of each row says which; Where anti-β2GPI antibodies (Cedarlane CL20021HP, peroxidase-conjugated) were present, β2GPI stood as dimeric β2GPI/antibody complexes; also called B2GPI; β2GPI in normal human serum
# T2 sequence (looked up): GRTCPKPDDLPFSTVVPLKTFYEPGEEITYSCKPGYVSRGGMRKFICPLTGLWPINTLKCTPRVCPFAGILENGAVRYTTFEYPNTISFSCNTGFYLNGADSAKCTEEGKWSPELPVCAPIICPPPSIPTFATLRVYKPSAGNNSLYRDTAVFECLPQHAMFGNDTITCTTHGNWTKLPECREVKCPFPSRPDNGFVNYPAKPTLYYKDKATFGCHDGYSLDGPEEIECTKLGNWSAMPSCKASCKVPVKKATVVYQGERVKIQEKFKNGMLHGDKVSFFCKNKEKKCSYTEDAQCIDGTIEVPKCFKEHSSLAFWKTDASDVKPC
# B1: monomeric A1 (first LA module of mouse ApoER2, residues 12-47 of the mature protein) (receptor)
# chain: not shown
# notes: range 12-47; Residues 12-47 are counted on the mature protein, not the precursor; also called A1 module
# B2: dimeric inhibitor A1-A1 (two A1 ligand-binding LA modules of ApoER2 connected by a Gly-Ser-Ser-Gly linker) (designed binder)
# chain: AECEEDQFRCRNERCIPLVWRCDEDNDCSDNSDEDDCGSSGCEEDQFRCRNERCIPLVWRCDEDNDCSDNSDEDDCEA
# What was measured:
# [1] = molecular target: T1, isolated recombinant domain V of β2GPI …; assay: inhibition of binding of isolated HA-tagged β2GPI-DV to a cardiolipin-coated plate, without dimerization antibodies; OD405, one-site fit
# Experimental: (§1) Cardiolipin-coated 96 well plates available as part of the ImmunoWELL cardiolipin IgG test kit (GenBio) were blocked with 0.5% of skim milk and 2% BSA in 20 mM Tris, 100 mM NaCl, 2 mM CaCl₂, pH 7.4. The assay buffer contained 20 mM Tris, 100 mM NaCl, 2 mM CaCl₂, pH 7.4 with 2% BSA and the wash buffer was 20 mM Tris, 100 mM NaCl, 2 mM CaCl₂, pH 7.4. When the purified β2GPI (Haematologic Technologies, Inc.) was used in experiments, 27 mM glycine was added to the assay buffer to account for glycine present in the stock solution of β2GPI. β2GPI bound to cardiolipin was detected with peroxidase-conjugated anti-β2GPI antibodies (Cedarlane, CL20021HP, 2 mg/ml) diluted 1:2500. […] The peroxidase activity of the bound antibodies was detected using 2-2′-azino-di-[3-ethylbenzthizzoline]sulfonate (ABTS) chromogenic reagent by measuring OD at 405 nm. […] The fits of the raw data and the titration data points were then normalized to the maximum binding determined from the fit to facilitate comparison.
# For the inhibition studies, increasing concentrations of A1 or A1-A1 were added to a constant amount of β2GPI ([…]), normal human serum (1%) or β2GPI-DV (130 nM) and incubated for 1 hour at room temperature. […] Then, samples were incubated on wells for an additional 1 hour and, after washing, the bound β2GPI/anti-β2GPI or β2GPI-DV/anti-tag antibody complexes were detected.
# [2] = molecular target: T2, Beta2-glycoprotein I (β2GPI), …; assay: inhibition of binding of 10 nM β2GPI purified from plasma to a cardiolipin-coated plate, with anti-β2GPI antibodies present; OD405, one-site inhibition fit
# Experimental: Next, we analyzed how A1-A1 and A1 inhibit the binding of purified β2GPI to cardiolipin. […] We used β2GPI purified from human plasma available from Haematologic Technologies, Inc. and analyzed the binding and inhibition of the binding of purified β2GPI by A1-A1 and A1 in the presence and in the absence of anti-β2GPI antibodies. […] We incubated 10 nM of β2GPI with various concentrations of the dimeric, A1-A1, and monomeric, A1, inhibitors in the presence of anti-β2GPI antibodies. […] In a separate experiment, we measured the inhibition of β2GPI in the presence of antibodies and compared the measured values to values predicted by the fit of the titration data (FIG. 4C). The measured values were close to those expected from the fit, additionally confirming that in the presence of anti-β2GPI antibodies a much lower concentration of A1-A1 was required to inhibit 50% of the binding of purified β2GPI to cardiolipin compared to A1. […] Similarly to what we observed for β2GPI in serum, the binding of purified β2GPI to cardiolipin in the presence of anti-β2GPI antibodies was inhibited more strongly by the dimeric inhibitor A1-A1 than by A1. Both, A1-A1 and A1, were ineffective in the inhibition of β2GPI in the absence of anti-β2GPI antibodies. […]
# [3] = molecular target: T1, isolated recombinant domain V of β2GPI …; assay: inhibition of binding of 30 nM HA-tagged β2GPI-DV to a cardiolipin-coated plate, with anti-tag (anti-HA) antibody present (dimeric complexes); OD405, one-site fit
# Experimental: As we observed for the inhibition of the binding of β2GPI in human serum and purified β2GPI to cardiolipin-coated surfaces, the isolated domain V was inhibited much stronger by the dimeric inhibitor A1-A1 compared to monomeric A1 in the presence of dimeric β2GPI-DV/anti-tag antibody complexes.
# as §1, with “comparison. […]” for “comparison.”
# [4] = molecular target: T2, Beta2-glycoprotein I (β2GPI), …; assay: inhibition of binding of β2GPI in 1% human serum to a cardiolipin-coated plate, without anti-β2GPI antibodies during binding (monomeric β2GPI); OD405, one-site fit
# Description: (§2) We compared the dimeric inhibitor, A1-A1, to monomeric A1 on the inhibition of binding of β2GPI/anti-β2GPI antibody complexes to cardiolipin. First, we used pooled normal human serum as a source of β2GPI. The majority of the β2GPI molecules in serum is in the circular form (Agar et al., Blood, 2010). To select the appropriate concentration of β2GPI for the inhibition studies, we measured the binding of β2GPI to cardiolipin (FIG. 2A). To create β2GPI/anti-β2GPI complexes, anti-β2GPI antibodies at constant concentration were added to β2GPI before the samples were applied to cardiolipin. […] We then compared the efficiency of A1-A1 and A1 for the inhibition of the binding of β2GPI in serum to cardiolipin in the presence of anti-β2GPI antibodies (FIG. 2B). 0.04% of human serum, which is in the linear region of the binding curve, was incubated on a cardiolipin-coated surface in the presence of anti-β2GPI antibodies and the inhibitors. In the presence of anti-β2GPI antibodies, the dimeric molecule, A1-A1, inhibited the binding to cardiolipin of β2GPI in serum much stronger than monomeric A1. […] Also, we measured how A1-A1 and A1 inhibited the binding of β2GPI in serum in the absence of anti-β2GPI antibodies (FIG. 3). A 1% solution of human serum was titrated with A1-A1 or A1 and β2GPI bound to cardiolipin was subsequently detected with anti-β2GPI antibodies. […]
# [5] = molecular target: T2, Beta2-glycoprotein I (β2GPI), …; assay: inhibition of binding of β2GPI in 0.04% human serum to a cardiolipin-coated plate, with anti-β2GPI antibodies present (β2GPI/antibody complexes); OD405, one-site fit
# Description: as §2
Binder,IC50 [1] [µM],IC50 [2] [µM],IC50 [3] [µM],IC50 [4] [µM],IC50 [5] [µM]
B1,188,191,204,176,218
B2,–,26,12,189,10
